Patent US20170369590A1 (Genmab, published 2017)

What was measured:
HER2ECDHis [1] = molecular target: T1, HER2ECDHis (human, UniProt P04626 23-653, biotinylated in the cross-block ELISA (sites not given)); experiment: ELISA; competitor C1
T1 construct: range 1-653; expressed in HEK-293F; also called soluble HER2; biotinylated HER2ECDHis

HER2ECDHis [2] = molecular target: T1, HER2ECDHis; experiment: ELISA; competitor F5
Experimental: (§1) Next, the ELISA wells were washed with PBST (PBS supplemented with 0.05% Tween-20 [Sigma-Aldrich, Zwijndrecht, The Netherlands]) and blocked for one hour at room temperature (RT) with PBSTC (PBST supplemented 2% [v/v] chicken serum [Gibco, Paisley, Scotland]). The ELISA wells were then washed with PBST and incubated for one hour at RT with HER2ECDHis serially diluted in PBSTC (0.25-2 μg/mL in 2-fold dilutions). […] The plate was thereafter washed with PBST and incubated for one hour with 0.1 μg/mL Streptavidin-poly-HRP (Sanquin, Amsterdam, The Netherlands) diluted in PBST. After washing, the reaction was visualized through a 15 minutes incubation with 2,2′-azino-bis (3-ethylbenzothiazoline-6-sulfonic acid) (ABTS: one ABTS tablet diluted in 50 mL ABTS buffer (Roche Diagnostics, Almere, The Netherlands)) at RT protected from light. The colorization was stopped by adding an equal volume of oxalic acid (Sigma-Aldrich, Zwijndrecht, The Netherlands). Fluorescence at 405 nm was measured on a microtiter plate reader (Biotek Instruments, Winooski, USA).
(§2) Each HER2 antibody was coated to the ELISA wells at the sub-optimal dose that was determined as described above. After blocking of the ELISA wells, the wells were incubated with the predetermined concentration of 1 μg/mL biotinylated HER2ECDHis in the presence or absence of an excess of a second (competitor) HER2 antibody. The ELISA was then performed as described above. […] Percentage competition was then determined as 100 minus the percentage of inhibition.

HER2ECDHis [3] = molecular target: T1, HER2ECDHis; experiment: ELISA; competitor 005
Experimental: as §1, §2

HER2ECDHis [4] = molecular target: T1, HER2ECDHis; experiment: ELISA; competitor 006
Experimental: as §1, §2

HER2ECDHis [5] = molecular target: T1, HER2ECDHis; experiment: ELISA; competitor 059
Experimental: as §1, §2

HER2ECDHis [6] = molecular target: T1, HER2ECDHis; experiment: ELISA; competitor 060
Experimental: as §1, §2

HER2ECDHis [7] = molecular target: T1, HER2ECDHis; experiment: ELISA; competitor 106
Experimental: as §1, §2

HER2ECDHis [8] = molecular target: T1, HER2ECDHis; experiment: ELISA; competitor 111
Experimental: as §1, §2

HER2ECDHis [9] = molecular target: T1, HER2ECDHis; experiment: ELISA; competitor Pert
Experimental: as §1, §2

HER2ECDHis [10] = molecular target: T1, HER2ECDHis; experiment: ELISA; competitor Tras
Experimental: as §1, §2

[11] = molecular target: T2, human epidermal growth factor receptor 2 (HER2), membrane-bound on cells (human, UniProt P04626 23-1255); experiment: cell-based or functional assay
[12] = molecular target: T2, human epidermal growth factor receptor …; experiment: cell-based or functional assay; remark: listed apart in the source
[13] = molecular target: T2, human epidermal growth factor receptor …; experiment: cell-based or functional assay; remark: listed apart in the source

B1: HuMab 005 (antibody, V domains shown)
VH: EVQLVQSGAEVKKPGESLKISCKASGYSFHFYWIGWVRQMPGKGLEWMGSIYPGDSDTRYRPSFQGQVTISADKSISTAYLQWTSLKASDTAIYYCARQRGDYYYFYGMDVWGQGTTVTVSS
VL: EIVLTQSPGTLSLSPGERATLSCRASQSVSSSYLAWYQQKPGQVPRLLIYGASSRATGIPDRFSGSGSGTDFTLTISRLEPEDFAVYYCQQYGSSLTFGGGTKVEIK
notes: also called PC1014-005; TH1014-005
% binding vs no competitor (HER2ECDHis [1]): 157%
% binding vs no competitor (HER2ECDHis [2]): 227%
% binding vs no competitor (HER2ECDHis [3]): 18%
% binding vs no competitor (HER2ECDHis [4]): 15%
% binding vs no competitor (HER2ECDHis [5]): 22%
% binding vs no competitor (HER2ECDHis [6]): 12%
% binding vs no competitor (HER2ECDHis [7]): 54%
% binding vs no competitor (HER2ECDHis [8]): 32%
% binding vs no competitor (HER2ECDHis [9]): 115%
% binding vs no competitor (HER2ECDHis [10]): 126%
% cells killed, AU565, anti-kappa-ETA'-conjugated [11]: 69.7%
EC50 of cell kill, AU565, anti-kappa-ETA'-conjugated [11]: 0.0151 µg/mL
% cells killed, A431, anti-kappa-ETA'-conjugated [12]: 88.5%
EC50 of cell kill, A431, anti-kappa-ETA'-conjugated [12]: ~0.0101 µg/mL
EC50, fab-CypHer5E internalization, AU565 [13]: 0.0214 µg/mL
Maximal MFI, fab-CypHer5E internalization, AU565 [13]: 95100 MFI
